Reference: US20240366788A1 (DUKE UNIVERSITY, published 2024)

Molecular target: T1, H2-Q7 (QA2), GPI-anchored MHC class Ib molecule on murine T cells (mouse, UniProt P14429 22-334; P01887 21-119)
T1 construct: whole, on cells; also called H2-Q7/MHC-I
T1 sequence (MHC heavy, looked up): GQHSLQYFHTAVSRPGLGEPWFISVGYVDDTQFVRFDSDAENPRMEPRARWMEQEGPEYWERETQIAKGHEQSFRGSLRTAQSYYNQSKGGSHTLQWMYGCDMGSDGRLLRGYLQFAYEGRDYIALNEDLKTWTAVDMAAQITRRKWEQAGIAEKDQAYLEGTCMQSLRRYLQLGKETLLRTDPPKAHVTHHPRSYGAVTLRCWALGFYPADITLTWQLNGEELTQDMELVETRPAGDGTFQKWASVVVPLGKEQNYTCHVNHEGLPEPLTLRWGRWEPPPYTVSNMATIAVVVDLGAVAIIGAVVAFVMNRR
T1 sequence (b2m, looked up): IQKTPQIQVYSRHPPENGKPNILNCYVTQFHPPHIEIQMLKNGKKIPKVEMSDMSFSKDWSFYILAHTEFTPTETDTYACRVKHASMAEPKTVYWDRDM
Test: qPCR of surface-bound viral genomes on C57BL/6J T cells, 1 hr at 4 C, with against without PI-PLC pre-treatment

B1: Ark313 AAV capsid (AAV6 capsid variant with 454-VVNPAEG-460) (other)
chain: MAADGYLPDWLEDNLSEGIREWWDLKPGAPKPKANQQKQDDGRGLVLPGYKYLGPFNGLDKGEPVNAADAAALEHDKAYDQQLKAGDNPYLRYNHADAEFQERLQEDTSFGGNLGRAVFQAKKRVLEPFGLVEEGAKTAPGKKRPVEQSPQEPDSSSGIGKTGQQPAKKRLNFGQTGDSESVPDPQPLGEPPATPAAVGPTTMASGGGAPMADNNEGADGVGNASGNWHCDSTWLGDRVITTSTRTWALPTYNNHLYKQISSASTGASNDNHYFGYSTPWGYFDFNRFHCHFSPRDWQRLINNNWGFRPKRLNFKLFNIQVKEVTTNDGVTTIANNLTSTVQVFSDSEYQLPYVLGSAHQGCLPPFPADVFMIPQYGYLTLNNGSQAVGRSSFYCLEYFPSQMLRTGNNFTFSYTFEDVPFHSSYAHSQSLDRLMNPLIDQYLYYLNRTQNQSVVNPAEGLLFSRGSPAGMSVQPKNWLPGPCYRQQRVSKTKTDNNNSNFTWTGASKYNLNGRESIINPGTAMASHKDDKDKFFPMSGVMIFGKESAGASNTALDNVMITDEEEIKATNPVATERFGTVAVNLQSSSTDPATGDVHVMGALPGMVWQDRDVYLQGPIWAKIPHTDGHFHPSPLMGGFGLKHPPPQILIKNTPVPANPPAEFSATKFASFITQYSTGQVSVEIEWELQKENSKRWNPEVQYTSNYAKSANVDFTVDNNGLYTEPRPIGTRYLTRPL
fold reduction in bound virus per cell after PI-PLC treatment (GPI cleavage): ~10 fold
